± gives the standard deviation of the averaged measurements.
Assay: total protein half-life in vivo (active degradation + dilution); higher = more stable protein
[1] = E. coli NCM3722 delta-clpP delta-lon delta-hslV, growth: N-lim chemostat, doubling time 6 h
[2] = E. coli NCM3722 delta-clpP, growth: N-lim chemostat, doubling time 6 h
[3] = E. coli NCM3722 delta-hslV, growth: N-lim chemostat, doubling time 6 h
[4] = E. coli NCM3722 delta-lon, growth: N-lim chemostat, doubling time 6 h
[5] = E. coli NCM3722 delta-smpB, growth: N-lim chemostat, doubling time 6 h
[6] = wild type E. coli NCM3722, growth: C-lim chemostat, doubling time 3 h
[7] = wild type E. coli NCM3722, growth: C-lim chemostat, doubling time 6 h
[8] = wild type E. coli NCM3722, growth: C-lim chemostat, doubling time 12 h
[9] = wild type E. coli NCM3722, growth: N-lim chemostat, doubling time 6 h
[10] = wild type E. coli NCM3722, growth: N-lim chemostat, doubling time 12 h
[11] = wild type E. coli NCM3722, growth: P-lim chemostat, doubling time 6 h
[12] = wild type E. coli NCM3722, growth: P-lim chemostat, doubling time 12 h

Row | Sequence | total protein half-life in vivo [1] [h] | total protein half-life in vivo [2] [h] | total protein half-life in vivo [3] [h] | total protein half-life in vivo [4] [h] | total protein half-life in vivo [5] [h] | total protein half-life in vivo [6] [h] | total protein half-life in vivo [7] [h] | total protein half-life in vivo [8] [h] | total protein half-life in vivo [9] [h] | total protein half-life in vivo [10] [h] | total protein half-life in vivo [11] [h] | total protein half-life in vivo [12] [h]
1 | MDKFRVQGPTKLQGEVTISGAKNAALPILFAALLAEEPVEIQNVPKLKDVDTSMKLLSQLGAKVERNGSVHIDARDVNVFCAPYDLVKTMRASIWALGPLVARFGQGQVSLPGGCTIGARPVDLHISGLEQLGATIKLEEGYVKASVDGRLKGAHIVMDKVSVGATVTIMCAATLAEGTTIIENAAREPEIVDTANFLITLGAKISGQGTDRIVIEGVERLGGGVYRVLPDRIETGTFLVAAAISRGKIICRNAQPDTLDAVLAKLRDAGADIEVGEDWISLDMHGKRPKAVNVRTAPHPAFPTDMQAQFTLLNLVAEGTGFITETVFENRFMHVPELSRMGAHAEIESNTVICHGVEKLSGAQVMATDLRASASLVLAGCIAEGTTVVDRIYHIDRGYERIEDKLRALGANIERVKGE [P0A749] | 4.88 ± 0.64 | 3.91 ± 0.28 | 3.48 ± 0.22 | 4.25 ± 0.55 | 3.39 ± 0.23 | 2.92 ± 0.043 | 6.05 ± 1.2 | 9.85 ± 0.48 | 3.47 ± 0.084 | 5.28 ± 0.25 | 5.53 ± 0.1 | 10.9 ± 0.56
2 | MSGTLLAFDFGTKSIGVAVGQRITGTARPLPAIKAQDGTPDWNIIERLLKEWQPDEIIVGLPLNMDGTEQPLTARARKFANRIHGRFGVEVKLHDERLSTVEARSGLFEQGGYRALNKGKVDSASAVIILESYFEQGY [P0A8I1] | 4.82 ± 0.066 | 4.88 | 3.57 ± 0.011 | 4.27 ± 0.32 | 3.5663 ± 0.00095 | 2.88 ± 0.18 | 5.4 ± 0.77 | 10.2 ± 0.33 | 3.8577 ± 0.0028 | 7.41 ± 2.2 | 4.95 ± 0.11 | 8.63 ± 2.5
3 | MRKILITGGAGFIGSALVRYIINETSDAVVVVDKLTYAGNLMSLAPVAQSERFAFEKVDICDRAELARVFTEHQPDCVMHLAAESHVDRSIDGPAAFIETNIVGTYTLLEAARAYWNALTEDKKSAFRFHHISTDEVYGDLHSTDDFFTETTPYAPSSPYSASKASSDHLVRAWLRTYGLPTLITNCSNNYGPYHFPEKLIPLMILNALAGKSLPVYGNGQQIRDWLYVEDHARALYCVATTGKVGETYNIGGHNERKNLDVVETICELLEELAPNKPHGVAHYRDLITFVADRPGHDLRYAIDASKIARELGWLPQETFESGMRKTVQWYLANESWWKQVQDGSYQGERLGLKG | 5.27 ± 0.23 | 5.27 ± 0.67 | 5.1 ± 0.12 | 5.96 ± 0.64 | 4.74 ± 0.24 |  | 6.39 ± 0.12 | 11.7 ± 1.8 | 4.95 ± 0.23 | 10.7 ± 2.9 | 6.4 ± 0.31 | 12.61 ± 0.0068
4 | MNIIEANVATPDARVAITIARFNNFINDSLLEGAIDALKRIGQVKDENITVVWVPGAYELPLAAGALAKTGKYDAVIALGTVIRGGTAHFEYVAGGASNGLAHVAQDSEIPVAFGVLTTESIEQAIERAGTKAGNKGAEAALTALEMINVLKAIKA |  | 6.4 ± 0.16 | 6.59 ± 0.59 |  | 5.79 ± 0.1 | 3.16 ± 0.054 | 6.41 ± 0.27 | 13.7 ± 0.27 | 6.17 ± 0.85 | 12.8 ± 0.8 | 5.73 ± 0.29 | 13.6 ± 0.3
5 | MRWILFILFCLLGAPAHAVSIPGVTTTTTTDSTTEPAPEPDIEQKKAAYGALADVLDNDTSRKELIDQLRTVAATPPAEPVPKIVPPTLVEEQTVLQKVTEVSRHYGEALSARFGQLYRNITGSPHKPFNPQTFSNALTHFSMLAVLVFGFYWLIRLCALPLYRKMGQWARQKNRERSNWLQLPAMIIGAFIIDLLLLALTLFVGQVLSDNLNAGSRTIAFQQSLFLNAFALIEFFKAVLRLIFCPNVAELRPFTIQDESARYWSRRLSWLSSLIGYGLIVAVPIISNQVNVQIGALANVIIMLCMTVWALYLIFRNKKEITQHLLNFAEHSLAFFSLFIRAFALVWHWLASAYFIVLFFFSLFDPGNSLKFMMGATVRSLAIIGIAAFVSGMFSRWLAKTITLSPHTQRNYPELQKRLNGWLSAALKTARILTVCVAVMLLLSAWGLFDFWNWLQNGAGQKTVDILIRIALILFFSAVGWTVLASLIENRLASDIHGRPLPSARTRTLLTLFRNALAVIISTITIMIVLSEIGVNIAPLLAGAGALGLAISFGSQTLVKDIITGVFIQFENGMNTGDLVTIGPLTGTVERMSIRSVGVRQDTGAYHIIPWSSITTFANFVRGIGSVVANYDVDRHEDADKANQALKDAVAELMENEEIRGLIIGEPNFAGIVGLSNTAFTLRVSFTTLPLKQWTVRFALDSQVKKHFDLAGVRAPVQTYQVLPAPGATPAEPLPPGEPTL | 4.93 ± 1 | 6.1 ± 0.28 |  | 5.15 ± 0.43 |  |  | 2.55 ± 2 | 6.41 ± 4.3 | 4.92 | 9.64 ± 0.63 | 6.83 ± 0.65 | 13 ± 1.4
6 | MRAKLLGIVLTTPIAISSFASTETLSFTPDNINADISLGTLSGKTKERVYLAEEGGRKVSQLDWKFNNAAIIKGAINWDLMPQISIGAAGWTTLGSRGGNMVDQDWMDSSNPGTWTDESRHPDTQLNYANEFDLNIKGWLLNEPNYRLGLMAGYQESRYSFTARGGSYIYSSEEGFRDDIGSFPNGERAIGYKQRFKMPYIGLTGSYRYEDFELGGTFKYSGWVESSDNDEHYDPGKRITYRSKVKDQNYYSVAVNAGYYVTPNAKVYVEGAWNRVTNKKGNTSLYDHNNNTSDYSKNGAGIENYNFITTAGLKYTF |  | 6.57 ± 0.46 | 6.305 ± 0.013 | 6.712 ± 0.042 | 5.81 ± 0.35 | 3.21 ± 0.091 | 6.17 ± 0.45 | 11.5 ± 0.18 | 6.05 ± 0.22 | 12.2 ± 2.6 | 6.51 ± 0.55 | 13.498 ± 0.0072
7 | MKRPDYRTLQALDAVIRERGFERAAQKLCITQSAVSQRIKQLENMFGQPLLVRTVPPRPTEQGQKLLALLRQVELLEEEWLGDEQTGSTPLLLSLAVNADSLATWLLPALAPVLADSPIRLNLQVEDETRTQERLRRGEVVGAVSIQHQALPSCLVDKLGALDYLFVSSKPFAEKYFPNGVTRSALLKAPVVAFDHLDDMHQAFLQQNFDLPPGSVPCHIVNSSEAFVQLARQGTTCCMIPHLQIEKELASGELIDLTPGLFQRRMLYWHRFAPESRMMRKVTDALLDYGHKVLRQD [P0A8S1] | 5.48 ± 0.31 | 5.93 ± 1.3 | 5.46 ± 0.27 | 5.78 ± 0.57 | 4.96 ± 0.39 | 3.01 ± 0.31 |  | 11.6 ± 0.16 | 5.84 ± 0.67 | 9.72 ± 0.46 | 6.03 ± 0.091 | 13.4 ± 0.89
8 | MMLSEETSAVRPQKQTRFNGAKLVWMLKGSPLTVTSAVIIVLMLLMMIFSPWLATHDPNAIDLTARLLPPSAAHWFGTDEVGRDLFSRVLVGSQQSILAGLVVVAIAGMIGSLLGCLSGVLGGRADAIIMRIMDIMLSIPSLVLTMALAAALGPSLFNAMLAIAIVRIPFYVRLARGQALVVRQYTYVQAAKTFGASRWHLINWHILRNSLPPLIVQASLDIGSAILMAATLGFIGLGAQQPSAEWGAMVANGRNYVLDQWWYCAFPGAAILLTAVGFNLFGDGIRDLLDPKAGGKQS |  |  |  |  | 4.22 ± 0.1 |  |  |  | 4.15 | 6.94 |  | 

From the supplement of paper PMC11246515
